For the assay, the target named is Fc-tagged receptor-binding domain (RBD) of the SARS-CoV-2 spike (S) protein (SARS-CoV-2) (UniProt P0DTC2). The experiment in a line: BLI; Octet Red96e; Fc-tagged RBD loaded onto the biosensor (streptavidin biosensors as printed), Fab in solution; 1x PBS pH 7.4, 0.01% w/v BSA, 0.002% v/v Tween 20; 60 s association, 60 s dissociation; 1:1 binding model. (In general: BLI is a label-free optical method that tracks binding on a fibre tip over time.)

pKd: −log10 of the molar value.

The substance “COV107-23 heavy chain paired with the light chain of COVD21-C8 (Fab)” had a pKd of under 6.00.

Regarding “COVD21-C8 heavy chain paired with the light chain of COV107-23 (Fab)”, the pKd was under 6.00.

As a reminder, the pKd is −log10 of the Kd, conventionally taken in molar units.
